# Laboratory results reported in paper PMC8437459.
# Target: T1, MgaSpn (Streptococcus pneumoniae D39 (JH1900)) (UniProt A0A0H2ZN44)
# T1 sequence: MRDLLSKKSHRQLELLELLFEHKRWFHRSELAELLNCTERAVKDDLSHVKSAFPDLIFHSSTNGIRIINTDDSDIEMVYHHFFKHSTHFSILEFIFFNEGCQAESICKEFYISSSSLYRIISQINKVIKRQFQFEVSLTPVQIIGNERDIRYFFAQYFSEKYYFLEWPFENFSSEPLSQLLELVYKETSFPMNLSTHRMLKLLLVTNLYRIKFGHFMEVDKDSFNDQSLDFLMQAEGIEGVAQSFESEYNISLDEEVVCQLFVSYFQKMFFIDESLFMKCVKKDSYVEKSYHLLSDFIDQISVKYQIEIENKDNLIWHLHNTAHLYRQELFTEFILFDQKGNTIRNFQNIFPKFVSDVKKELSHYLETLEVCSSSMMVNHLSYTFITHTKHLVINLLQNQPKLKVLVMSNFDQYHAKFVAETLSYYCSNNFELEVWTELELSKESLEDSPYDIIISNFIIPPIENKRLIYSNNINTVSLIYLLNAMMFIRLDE
# Assay: EMSA
sequence,measurement,value
TACACATCTGCTTCTAAAATATTGTTAGAAAACGATTTGACTGTCCTGATCAATTTGTCATGTTCTTATTTCATTTTACTATATTTTTGGTTCGCGGGAAGTCTACTAAGATACTTAAAGATGCAGATAGTGAAAAAAGGTGTAGACATTACCGTAAAAAAGTGATATAATCGTAAGATGTTCAATGTATAGGTGTTAATCATGAGTAGACGTTTTAA (double strand) [Pcps probe (EMSA)],binding,binds
